Experimental data from the nanobody polyreactivity screen of Harvey et al. (2022).

Assay: yeast display, Sf9 membrane polyspecificity reagent, FACS + sequencing; frameworks hold sequencing errors
How it was run: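 Galactose induction of a Saccharomyces cerevisiae BJ5465 synthetic nanobody display library ran 36–48 hours. The cells were then stained for 1 hour at 4 °C with 10% biotinylated, detergent-solubilized Sf9 membrane reagent, pulled down on streptavidin microbeads and FACS-sorted into low and high (top ~1%) gates on expression and reagent-binding fluorescence. Labels for polyreactivity follow the gate of origin.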

| Sequence | polyreactivity (PSR sort gate) |
| --- | --- |
| QVQLVESGGGLVQAGGNLRLSCAASGFIFTRNAMGWYRQAPGKERELVAAISTSGDRTYYADSVKGRFTISRDNAKNTVYLQMNSLKPEDTAVYYCAVVRPRYVVRYDYWGQGTQVNVSS | high polyreactivity |
| QVQLVESGGGLVQAGGRHRLSCAPSGSIFRFYVMGWYIQAPGKERELVAAISIGGSTNYADSVKGRFTISRDNAKNTVYLQMNSLKPEDSAVYYCAADGPTYWWTTQWYWGDYWGQGTQVTVSS | low polyreactivity |
| QVQLVESGGGLVQAGGRLRFSCADSGITFLRYAIGWSRQAPGKERELVAGISYTGGSTNYADSVKGRFTISRDNAKNTVYLQMNSLKPEDSSVYYCAAQGYRWYDYWGQGTQVTVSS | high polyreactivity |
| QVQLVESGGGLVQAGGRLRFTCAASGAIFHNYDMGGYRQATGKERQLVADISRGGDTNYADSVKGRFTISRDNAKNTVYLEMNSMKPEDTAVYYCNATYWILDSPWWRETFDYWGQGSQVTVSS | low polyreactivity |
| QVQLVESGGGLVQAGGRLRISCAASGRTFGRYTMGWYRQAPGKERELVASISNTARTNYADSVKGRFTISRDNAKNTVYLQMNSLKPEDTAVYYCAAERAILSSDKQSLWRFDYWGQGTQVTVSS | low polyreactivity |
| QVQLVESGGGLVQAGGRLRLICAASGRTFTPYAMGWYRQAPGKERELVAAITRGGSTYYADSVKGRFTISRDNAKNTVYLHMNSLKPEDTAVYYCNALVSYYKLSSEYDYWGQGTQVTVSS | high polyreactivity |
| QVQLVESGGGLVQAGGRLRLRCAASGSIFSPNAMGWYRQAPGKERELVATISFSGGRTYYADSVKGRFTISRDNAKNSVYLQMNSLKPEDTAVYYCAKAYYYTDMDYWGQGTQVTVSS | low polyreactivity |
| QVQLVESGGGLVQAGGRLRLSCAASGATFYVYAMGWYRQAPGKERELVATIDSTDGDTYADSVKGRCTISRDNAKKTVYLQMNSLKPEDTAGYDCAATDLNIYYGYYDSWYWYELDYWGQGTQVTVSS | high polyreactivity |
| QVQLVESGGGLVQAGGRLRLSCAASGFIFVRNAMGWYRQAPGKERELVAAISRGGGRTYYADSVKGRFTISRDNAKNTVYLQINRLKPEDTAVYYCNTQSVGVQFVKDNYWGQGTQVTVSS | high polyreactivity |
| QVQLVESGGGLVQAGGRLRLSCAASGFIFYDYAMGWYRQAPGKERELVAVITSGGSTYYADSVKGRFTISRDNAKNTVYLQMNSLKPEDTAVYYCNADWVFTWYDYPNDKYDYWGQGTQVTVSS | low polyreactivity |
| QVQLVESGGGLVQAGGRLRLSCAASGFIFYFYAMGWYRQAPGKERELVAAISWSGGSPYYADSVKGRFTISRDNAKNTVYLQMNSLKPEDTAVYYCAADTRTSYYNDDYDYWGQGTQVTVSS | low polyreactivity |
| QVQLVESGGGLVQAGGRLRLSCAASGFISKYYAMGWSRQAQGKERELVASISRDGSTSYADSVKGRFTISRDNAKNTVYIQMNSLKPEDTAVYYCAAPSYRTRYYYWGQGTQVTVSS | high polyreactivity |
| QVQLVESGGGLVQAGGRLRLSCAASGFIYRPYLMGWYRQATGKEMEFVAAISGRGGSTYYADSVKGRFTISRDNAKKTVYLQMNSLKPEDTAVYYCNAVYIYTGVGYNYWGQGTQVTVSS | high polyreactivity |
| QVQLVESGGGLVQAGGRLRLSCAASGFTFAYYAMGGNRQSPGKERELVAAISSGGGSTYYADSEKGRFTISRDNAKNTVYLQMNSQKPEDTAVYYCAAESCSPQAWFDYWGQGTQVTVSS | high polyreactivity |
| QVQLVESGGGLVQAGGRLRLSCAASGFTFDYNAMGWYIQAPGKEREFVASISVSGGSTYYADSVKGRFTISRDNAKNTVYLQMNSLKPEDTAVYYCAAELTGDGTLGYDFWGQGTQVTVSS | low polyreactivity |
| QVQLVESGGGLVQAGGRLRLSCAASGFTFVKNAMGWYRQAPGKERELVAAISSRGGSTYYADSVKGRFTISRDNAKNTVYLQMNSLKAEDTAVYYCATERERTMGYWGQGTQVTDSS | high polyreactivity |
| QVQLVESGGGLVQAGGRLRLSCAASGGIFDTYVMGRYRQAPGKERELVAGISSTGGSTYYADSVKGRFTISRDNAKNTVYLQMNSLKPEDTAVYYCNAEAGGFDYYGKTYRYGDYWGQGTQVTVSS | low polyreactivity |
| QVQLVESGGGLVQAGGRLRLSCAASGHIFWGYAMGWSRQAPGKERELVAAITSGGNTNYADSVKGRFTISRDNAKNTVYLQMNSLKPEDTAVYYCAKRTRPWRDFDYWGQGTQVTVSS | low polyreactivity |
| QVQLVESGGGLVQAGGRLRLSCAASGIIFGYYALGWYRQAPGKERELVAAISSGGTTSYADSVKGRFTISRDNAKNTDYLQMNSLKPEDTAVYYCAADYDAAWYKDGYYYWGQGTQVTVSS | low polyreactivity |
| QVQLVESGGGLVQAGGRLRLSCAASGIIFGYYAMGWYREAPGKEREFVAAINYSGVSTYYADSVKGRLTISRDNAKNTVYLQMNSLKPEDTAVYYCAADFRIVVYGWGGSHMDYWGQGTQVTVSS | low polyreactivity |

| Sequence | polyreactivity (PSR sort gate) |
| --- | --- |
| QVQLVESGGGLVQAGGRLRLSCAASGIIFRGNPMGRYRQAPGKERELVAAIARRGGRTYYADSVKGRFTISRDNAKNTVYLQMNCLKAEDTAVYFCAAGELGDYWGQGTQVTVSS | high polyreactivity |
| QVQLVESGGGLVQAGGRLRLSCAASGIIFRWYTMGWYRQAPGKERELVAAISTSTGSTYYADSVKGRFTISRDNAKNTVYLQMNSLKPEDSAVYYCAAVYAYWNYESYYWGQGTQVTVSS | high polyreactivity |
| QVQLVESGGGLVQAGGRLRLSCAASGIIFVYYAMGWYRQAPGKERELVADITRSGSSTYYADSVKGRFTISRDNAKNTVYLQMNSLKAEDTAVYFCAADNFYQAYGYWGQGTQVTVSS | low polyreactivity |
| QVQLVESGGGLVQAGGRLRLSCAASGIILYGYAMGWYRQAPGKARELVAAITWSGGSTYYADSVKGRFTISRDNAKNTVYLQMNSLKPEDTAVYYCAVDVHTSADASLPQEYDYWGQGTQVTVSS | low polyreactivity |
| QVQLVESGGGLVQAGGRLRLSCAASGINFSHKVMGWYRQAPGKERELVAAITYSGGSTYYADSVKGRFTSSRDNAKNTVYLQMNSLKPEDTAVYYCNALGVSRRDYDYWGQGTQVTVSS | low polyreactivity |
| QVQLVESGGGLVQAGGRLRLSCAASGISFDWYAMGWYRQAPGKERELVAAITVGASTYADSVKGRFTISRDNAKNTDYLQMNSLIPEDTAVYYCTFPVFVDYGFYTIGHDYWGQGTQVTVSS | low polyreactivity |
| QVQLVESGGGLVQAGGRLRLSCAASGITFWNYAMGWYRQAPGKETELVAAITGGSTYYADSVKGRFTISRDYAKNTVYLQMNSLKPEDTAVYYCNADSLFEYWDYDYWGQGTQVTVSS | low polyreactivity |
| QVQLVESGGGLVQAGGRLRLSCAASGITYEPYAMGWYRQAPGKERELVAAISRSGGSTYYADSVKGRFTISRDNAKNTVYLQMNSLKPVDTAVYYCNALRGTASRRGYYWGQGTQVTVSS | high polyreactivity |
| QVQLVESGGGLVQAGGRLRLSCAASGITYTVYAMGWYRQAPGKERELLAAISSSGSTTYADSVNGRFTISRDNAKNTVYLLMNSLKPEDTAVYDCAAEGYYRFSTAYFRLKYEYWGQGTQVTVSS | low polyreactivity |
| QVQLVESGGGLVQAGGRLRLSCAASGLTFASYALGWYRQAPGKERELVARISRSGGSTYYADSVKGRFTISRDNAKNTVYLQMNSLIPEDTAVYYCAADYIFRRYPVGGIYDYDYWGQGTQVTLSS | high polyreactivity |
| QVQLVESGGGLVQAGGRLRLSCAASGNIFHYNAMGGSRQAPGKERELVAAITWSGGNTYYADSVKGRFTISRDNAKNTVYLQLNSLKPEDTAVYYCAAEFPQRATGGRYKTEYDYWGQGTQVTVSS | low polyreactivity |
| QVQLVESGGGLVQAGGRLRLSCAASGNIFYAYALGWYRQAPGKERELVAAISWSGDSTYYADSVKGRFTISRDNAKNTVYLQMNSLKPEDTAVYYCAARKVTYHYQWMDYWGQGTQVTVSS | low polyreactivity |
| QVQLVESGGGLVQAGGRLRLSCAASGRIFERYAMGWYRQAPGKERELVATISTSGGSTYYADSVKGRFTISRDNAKNTVYLQMNSLKPEDTAVYYCAAPYQRRRYYYWGQGTKVTVSS | high polyreactivity |
| QVQLVESGGGLVQAGGRLRLSCAASGRIFGYYAMGWYRQAPGKERELVAAISYRGGTTYYADSVKGRFTISRDNAKNTVYLQMNSLKPEDTAVYYCAAAAKSGLDYWGQGTQVTVSS | high polyreactivity |
| QVQLVESGGGLVQAGGRLRLSCAASGRIFIKNAMGWYRQAPGKESELVAAISDSGDSTYYAVSVKGRFTISRDNAKNTVYLQMNSLKPEDTAVYYCAADGADHRSEMYYWGQGTQVTVSS | low polyreactivity |
| QVQLVESGGGLVQAGGRLRLSCAASGRIFIYYAMGLYRQAPGKERELVAAISWGGGRTYYADSVKGRFTISRDNAKNTVYLQMNSLKPEDTAVYYCAAGVYTGQHEYDYWGQGTQVTVSS | low polyreactivity |
| QVQLVESGGGLVQAGGRLRLSCAASGRIFNHYAMGWYRQAPGKERELVAAITFSGGSTYYADSVKGRFTISRDNAKNTVHLQMNSLKPEHTAVYYCANRFSYRYGLQYDYWGQGTQGTVSS | high polyreactivity |
| QVQLVESGGGLVQAGGRLRLSCAASGRIFPWYAMGWSRPAPGKERELVAAISWSGGRTYYADSVKGRFTISRDNAKNTVYLQMNSLKPEDTAVDYCNADKWRYPLSGWWKRYDYWGQGTQVTVSS | high polyreactivity |
| QVQLVESGGGLVQAGGRLRLSCAASGRIFQHNTMGWYRQAPGKEREFVAAIRRSGGSTYYADSVKGRFTISRDNAKNTVYLQMNSLRPEDTAVYYCAARDYPTGTRRWGGGDSWGQGTQVTVSS | low polyreactivity |
| QVQLVESGGGLVQAGGRLRLSCAASGRIFSINAMGWYRQAPGKERELVAAISNRGGSTYYADSVKGRFTISRDNAKNTVYLQLNSLKPEDTAVYYCAARVATSGNYAPYYYWGQGTQVTVSS | high polyreactivity |
